Each substance was assayed against HLA-A*02:01 (Homo sapiens, UniProt P04439, D140Y/D185E/D98H/E176V/E277Q/G131W/G231S/I119V/I121R/I166T/I218V/L300P/L318F/N151K/N90K/P208A/P217A/Q86G/Q94H/R138H/R169H/T345S) (assay: MHC binding assay (UV-ligand exchange, anti-β2m ELISA, peptide exchange yield)). Conditions: binding to HLA-A*02:01.
Procedure, shortened: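 Yield of stabilized complexes quantified via the β2m light chain in an ELISA (streptavidin capture, 100-fold diluted monomers, HRP anti-β2m 2 ug/ml at 37 °C, TMB, A450). The complexes come from UV-triggered replacement of a photocleavable ligand by the candidate peptide.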

Substance | Peptide exchange (MHC class I binding score, peptide exchange yield)
481 (GLIEDYEALL; listed as Homo sapiens) [compound 481] | “+++” (>50 = +++)
551 (KLYESLLPFA; listed as Homo sapiens) [compound 551] | “+++” (>50 = +++)
271 (LVYPLELYPA; listed as Homo sapiens) [compound 271] | “+++” (>50 = +++)
619 (ALQDRVPLA; listed as Homo sapiens) [compound 619] | “+++” (>50 = +++)
1 (SLMEPPAVLLL; listed as Homo sapiens) [compound 1] | “+++” (>50 = +++)
326 (FLPEALDFV; listed as Homo sapiens) [compound 326] | “+++” (>50 = +++)
539 (ALFDAQAQV; listed as Homo sapiens) [compound 539] | “+++” (>50 = +++)
502 (RLLAQVPGL; listed as Homo sapiens) [compound 502] | “+++” (>50 = +++)
85 (KMSELRVTL; listed as Homo sapiens) [compound 85] | “+++” (>50 = +++)
349 (SLTEYLQNV; listed as Homo sapiens) [compound 349] | “++++” (>75% = ++++)
174 (ALAQYLITA; listed as Homo sapiens) [compound 174] | “+++” (>50 = +++)
42 (VLLQKIVSA; listed as Homo sapiens) [compound 42] | “+++” (>50 = +++)
523 (YQIPRTFTL; listed as Homo sapiens) [compound 523] | “++” (>20% = ++)
312 (IISDLTIAL; listed as Homo sapiens) [compound 312] | “+++” (>50 = +++)
590 (SLIEKLWQT; listed as Homo sapiens) [compound 590] | “++” (>20% = ++)
383 (ALLELENSVTL; listed as Homo sapiens) [compound 383] | “+++” (>50 = +++)
111 (YVWGFYPAEV; listed as Homo sapiens) [compound 111] | “+++” (>50 = +++)
372 (TMLLNIPLV; listed as Homo sapiens) [compound 372] | “++” (>20% = ++)
137 (TLVLTLPTV; listed as Homo sapiens) [compound 137] | “++++” (>75% = ++++)
289 (VLLEIEDLQV; listed as Homo sapiens) [compound 289] | “++++” (>75% = ++++)
342 (HIYDKVMTV; listed as Homo sapiens) [compound 342] | “+++” (>50 = +++)

Substance | Peptide exchange (MHC class I binding score, peptide exchange yield)
563 (WLLPYNGVTV; listed as Homo sapiens) [compound 563] | “+++” (>50 = +++)
579 (NLMEMVAQL; listed as Homo sapiens) [compound 579] | “++” (>20% = ++)
237 (ALLEASGTLLL; listed as Homo sapiens) [compound 237] | “++++” (>75% = ++++)
41 (SLMPHIPGL; listed as Homo sapiens) [compound 41] | “+++” (>50 = +++)
381 (FIDEAYVEV; listed as Homo sapiens) [compound 381] | “++” (>20% = ++)
391 (YVYPQRLNFV; listed as Homo sapiens) [compound 391] | “+++” (>50 = +++)
553 (SLLNQDLHWSL; listed as Homo sapiens) [compound 553] | “+++” (>50 = +++)
432 (TLIEESAKV; listed as Homo sapiens) [compound 432] | “++” (>20% = ++)
577 (VMFEDGVLMRL; listed as Homo sapiens) [compound 577] | “+++” (>50 = +++)
570 (ALANQIPTV; listed as Homo sapiens) [compound 570] | “++” (>20% = ++)
277 (LLPPLESLATV; listed as Homo sapiens) [compound 277] | “++” (>20% = ++)
264 (SLQEQLHSV; listed as Homo sapiens) [compound 264] | “+++” (>50 = +++)
57 (TLAELQPPVQL; listed as Homo sapiens) [compound 57] | “+++” (>50 = +++)
230 (ILVDWLVEV; listed as Homo sapiens) [compound 230] | “+” (>10% = +)
376 (AMFESSQNVLL; listed as Homo sapiens) [compound 376] | “++” (>20% = ++)
546 (VMIAGKVAVV; listed as Homo sapiens) [compound 546] | “+++” (>50 = +++)
134 (YLQELIFSV; listed as Homo sapiens) [compound 134] | “+++” (>50 = +++)
15 (VLLTFKIFL; listed as Homo sapiens) [compound 15] | “++” (>20% = ++)
22 (IMEENPGIFAV; listed as Homo sapiens) [compound 22] | “+++” (>50 = +++)
63 (YLLPSGGSVTL; listed as Homo sapiens) [compound 63] | “++” (>20% = ++)
475 (LLLNEEALAQI; listed as Homo sapiens) [compound 475] | “+++” (>50 = +++)

Substance | Peptide exchange (MHC class I binding score, peptide exchange yield)
131 (FVPPVTVFPSL; listed as Homo sapiens) [compound 131] | “++” (>20% = ++)
14 (AAYGGLNEKSFV; listed as Homo sapiens) [compound 14] | “+++” (>50 = +++)
584 (ALAEVAAMENV; listed as Homo sapiens) [compound 584] | “+++” (>50 = +++)
110 (FLSQVDFEL; listed as Homo sapiens) [compound 110] | “+++” (>50 = +++)
99 (ALVSKGLATV; listed as Homo sapiens) [compound 99] | “++” (>20% = ++)
316 (ILLERLWYV; listed as Homo sapiens) [compound 316] | “+++” (>50 = +++)
355 (SIQQSIERLLV; listed as Homo sapiens) [compound 355] | “++” (>20% = ++)
334 (TLTKVLVAL; listed as Homo sapiens) [compound 334] | “+++” (>50 = +++)
185 (FLIDDKGYTL; listed as Homo sapiens) [compound 185] | “++” (>20% = ++)
229 (RLPGPLGTV; listed as Homo sapiens) [compound 229] | “++” (>20% = ++)
50 (SLSELEALM; listed as Homo sapiens) [compound 50] | “+++” (>50 = +++)
493 (GLLGEKTQDLIGV; listed as Homo sapiens) [compound 493] | “+++” (>50 = +++)
10 (FLATFPLAAV; listed as Homo sapiens) [compound 10] | “++++” (>75% = ++++)
107 (FLQPVDDTQHL; listed as Homo sapiens) [compound 107] | “+++” (>50 = +++)
90 (TLLQIIETV; listed as Homo sapiens) [compound 90] | “+++” (>50 = +++)
197 (ALGPEGGRV; listed as Homo sapiens) [compound 197] | “++” (>20% = ++)
220 (LLQKFVPEI; listed as Homo sapiens) [compound 220] | “++” (>20% = ++)
575 (YLISQVEGHQV; listed as Homo sapiens) [compound 575] | “+++” (>50 = +++)
607 (RLYSGISGLEL; listed as Homo sapiens) [compound 607] | “+++” (>50 = +++)
